Assay [1] deals with Collagen type IV (Sigma). Description: adherence assay; MC02152 cells (46°C) on CIV-coated wells; no IgG.
The target in assay [2] is Mouse laminin (isolated from the EHS-sarcoma, Life Technologies) (mouse) (UniProt P19137). In words: adherence assay; 37°C-grown MC02152 cells on LN-coated wells.
Assay [3] addresses Collagen type IV (Sigma). Description: adherence assay; 37°C-grown MC02152 cells on CIV-coated wells.
Assay [4] has as its target Collagen type I (Sigma), immobilized. In words: adherence assay; 37°C-grown MC02152 cells on CI-coated wells.
The target is the same in assay [5]. In words: adherence assay; 46°C-grown MC02152 cells on CI-coated wells.
Assay [6] deals with Mouse laminin (isolated from the EHS-sarcoma, Life Technologies) (mouse) (UniProt P19137). Description: adherence assay; 46°C-grown MC02152 cells on LN-coated wells.
Assay [7] shares this target. Description: adherence assay; MC02152 cells (46°C) on LN-coated wells; no IgG.
Assay [8] addresses Collagen type I (Sigma), immobilized. Description: adherence assay; MC02152 cells (46°C) on CI-coated wells; no IgG.
The target of assay [9] is Bovine serum albumin (bovine) (UniProt P02769). In words: adherence assay; MC02152 cells (46°C) on BSA-coated wells (negative control); no IgG.
Chain of UniProt P02769 (P02769 25-607 limits assumed): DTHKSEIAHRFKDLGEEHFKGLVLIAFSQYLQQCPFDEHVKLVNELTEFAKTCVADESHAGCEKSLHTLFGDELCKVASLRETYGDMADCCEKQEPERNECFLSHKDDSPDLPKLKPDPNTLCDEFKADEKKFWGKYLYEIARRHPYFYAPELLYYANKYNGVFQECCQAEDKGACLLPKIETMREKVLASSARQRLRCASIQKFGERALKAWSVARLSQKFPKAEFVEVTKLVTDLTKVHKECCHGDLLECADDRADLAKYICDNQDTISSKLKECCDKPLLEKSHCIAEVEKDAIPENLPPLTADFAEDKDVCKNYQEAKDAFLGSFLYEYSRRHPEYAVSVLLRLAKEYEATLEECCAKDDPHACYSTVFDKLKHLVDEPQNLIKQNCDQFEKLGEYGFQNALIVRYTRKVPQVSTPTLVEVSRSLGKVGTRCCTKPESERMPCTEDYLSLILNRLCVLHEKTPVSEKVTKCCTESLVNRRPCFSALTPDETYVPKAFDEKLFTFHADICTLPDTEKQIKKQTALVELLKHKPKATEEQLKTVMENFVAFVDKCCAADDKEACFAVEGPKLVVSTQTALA
Assay [10] concerns the target Collagen type IV (Sigma). In words: adherence assay; 46°C-grown MC02152 cells on CIV-coated wells.
The target in assay [11] is Collagen type I (Sigma), immobilized. Description: adherence assay; OG1RF cells (46°C) on CI-coated wells; no IgG.
Assay [12] addresses Collagen type IV (Sigma). Description: adherence assay, 46°C-grown cells on CIV-coated wells.
Assay [13] has as its target Collagen type I (Sigma), immobilized. In words: adherence assay, 46°C-grown cells on CI-coated wells.
Assay [14] concerns the target Mouse laminin (isolated from the EHS-sarcoma, Life Technologies) (mouse) (UniProt P19137). In words: adherence assay; OG1RF cells (46°C) on LN-coated wells; no IgG.
Assay [15] concerns the target Bovine serum albumin (bovine) (UniProt P02769). Description: adherence assay; OG1RF cells (46°C) on BSA-coated wells (negative control); no IgG.
Assay [16] addresses Collagen type IV (Sigma). In words: adherence assay; OG1RF cells (46°C) on CIV-coated wells; no IgG.
Assay [17] addresses Collagen type I (Sigma), immobilized. In words: adherence assay; OG1RF cells (46°C) on CI-coated wells; no IgG. The source holds these as a separate data set.
Assay [18] concerns the target Collagen type IV (Sigma). Description: adherence assay; OG1RF cells (46°C) on CIV-coated wells; no IgG. The source holds these as a separate data set.
For assay [19], the target named is Collagen type I (Sigma), immobilized. In words: adherence assay, 35S-labelled 46°C-grown OG1RF cells on CI-coated wells (3.3% is the ace mutant TX5256).
Assay [20] has as its target Mouse laminin (isolated from the EHS-sarcoma, Life Technologies) (mouse) (UniProt P19137). Description: adherence assay; OG1RF cells (46°C) on LN-coated wells; no IgG. This is another data set of the same source.
The target is the same in assay [21]. Description: adherence assay, 46°C-grown cells on LN-coated wells.
Assay [22] addresses Bovine serum albumin (bovine) (UniProt P02769). Description: adherence assay; OG1RF cells (46°C) on BSA-coated wells (negative control); no IgG. This is another data set of the same source.
For assay [23], the target named is Collagen type IV (Sigma). In words: adherence assay; V583 cells (46°C) on CIV-coated wells; no IgG.
In assay [24] the target is Bovine serum albumin (bovine) (UniProt P02769). In words: adherence assay; V583 cells (46°C) on BSA-coated wells (negative control); no IgG.
Assay [25] deals with Mouse laminin (isolated from the EHS-sarcoma, Life Technologies) (mouse) (UniProt P19137). Description: adherence assay; V583 cells (46°C) on LN-coated wells; no IgG.
Assay [26] addresses Collagen type I (Sigma), immobilized. In words: adherence assay; V583 cells (46°C) on CI-coated wells; no IgG.
For assay [27], the target named is Bovine Type I collagen (Collagen Corp.), immobilized on a CM5 sensor chip (bovine) (UniProt P02453). In words: SPR (BIAcore 1000), Scatchard analysis of equilibrium responses, 1-70 µM Ace A over immobilised collagen; three measurements.
Chain of UniProt P02453 (P02453 162-1217, chain 1 of 2): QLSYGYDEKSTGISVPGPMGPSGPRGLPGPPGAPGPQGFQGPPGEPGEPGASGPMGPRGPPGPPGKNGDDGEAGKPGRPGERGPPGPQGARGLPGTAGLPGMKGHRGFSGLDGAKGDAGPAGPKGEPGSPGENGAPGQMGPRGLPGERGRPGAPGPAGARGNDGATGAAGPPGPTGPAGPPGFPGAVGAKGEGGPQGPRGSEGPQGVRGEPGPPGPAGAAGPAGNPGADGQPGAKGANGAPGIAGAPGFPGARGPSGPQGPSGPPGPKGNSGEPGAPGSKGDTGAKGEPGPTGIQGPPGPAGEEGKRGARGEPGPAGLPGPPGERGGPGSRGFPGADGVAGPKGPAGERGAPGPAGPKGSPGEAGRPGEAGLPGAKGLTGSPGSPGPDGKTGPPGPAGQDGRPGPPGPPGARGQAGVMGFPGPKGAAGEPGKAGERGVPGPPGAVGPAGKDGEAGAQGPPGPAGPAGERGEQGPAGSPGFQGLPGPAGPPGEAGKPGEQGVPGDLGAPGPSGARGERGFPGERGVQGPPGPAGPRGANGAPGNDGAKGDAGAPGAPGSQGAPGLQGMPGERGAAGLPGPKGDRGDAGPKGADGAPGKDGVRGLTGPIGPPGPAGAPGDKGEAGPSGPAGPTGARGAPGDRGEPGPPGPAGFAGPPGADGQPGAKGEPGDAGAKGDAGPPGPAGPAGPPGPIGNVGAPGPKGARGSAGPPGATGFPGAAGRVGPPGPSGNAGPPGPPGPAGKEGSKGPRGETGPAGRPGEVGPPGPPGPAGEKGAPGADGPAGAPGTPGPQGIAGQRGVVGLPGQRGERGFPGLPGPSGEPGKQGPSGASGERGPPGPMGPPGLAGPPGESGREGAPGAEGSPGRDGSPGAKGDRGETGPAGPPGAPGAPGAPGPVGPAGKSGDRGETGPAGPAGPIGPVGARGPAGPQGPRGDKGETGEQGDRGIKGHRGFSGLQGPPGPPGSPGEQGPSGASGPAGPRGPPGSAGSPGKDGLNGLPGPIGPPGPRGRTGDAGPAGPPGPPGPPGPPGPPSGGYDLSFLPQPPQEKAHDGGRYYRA
Chain of UniProt P02453 (P02465 80-1117, chain 2 of 2, further chain): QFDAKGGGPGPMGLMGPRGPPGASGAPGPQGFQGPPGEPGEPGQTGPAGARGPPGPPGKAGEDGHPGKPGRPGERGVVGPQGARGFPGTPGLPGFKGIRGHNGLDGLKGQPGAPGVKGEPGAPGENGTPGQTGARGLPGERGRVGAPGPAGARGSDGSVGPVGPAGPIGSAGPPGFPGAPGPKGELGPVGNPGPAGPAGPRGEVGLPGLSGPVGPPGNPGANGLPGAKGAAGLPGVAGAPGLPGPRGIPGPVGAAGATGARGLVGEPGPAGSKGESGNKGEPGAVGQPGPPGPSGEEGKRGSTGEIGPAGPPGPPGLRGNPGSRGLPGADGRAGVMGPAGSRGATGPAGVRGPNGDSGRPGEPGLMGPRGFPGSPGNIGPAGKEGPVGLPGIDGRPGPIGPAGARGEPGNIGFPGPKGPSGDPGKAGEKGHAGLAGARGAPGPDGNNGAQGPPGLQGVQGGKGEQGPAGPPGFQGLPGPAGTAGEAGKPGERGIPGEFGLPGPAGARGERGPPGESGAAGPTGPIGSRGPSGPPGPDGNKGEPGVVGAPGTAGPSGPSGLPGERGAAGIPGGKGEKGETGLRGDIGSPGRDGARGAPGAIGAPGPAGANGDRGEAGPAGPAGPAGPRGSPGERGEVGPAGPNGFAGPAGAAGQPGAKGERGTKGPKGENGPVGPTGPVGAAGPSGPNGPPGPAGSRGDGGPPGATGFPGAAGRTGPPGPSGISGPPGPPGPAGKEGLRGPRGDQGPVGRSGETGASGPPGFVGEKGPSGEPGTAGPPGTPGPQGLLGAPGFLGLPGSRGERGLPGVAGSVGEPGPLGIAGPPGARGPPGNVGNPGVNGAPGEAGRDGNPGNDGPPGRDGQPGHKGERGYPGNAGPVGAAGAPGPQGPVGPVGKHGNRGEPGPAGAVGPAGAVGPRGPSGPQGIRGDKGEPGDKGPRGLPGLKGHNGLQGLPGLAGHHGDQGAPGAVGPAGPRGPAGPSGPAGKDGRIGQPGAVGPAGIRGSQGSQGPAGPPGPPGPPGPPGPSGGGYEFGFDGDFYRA

For the substance “Ace protein of E. faecalis strain MC02152 (native; on cells or in mutanolysin extract)”, the % of cells bound with Collagen type IV (Sigma) [1] was 27.7%; in assay [2] it was 7.1%; with Collagen type IV (Sigma) [3] it was 8.9%; in assay [4], 6%; in [5], 29%; in assay [6], 41%. The % of cells bound was determined as 26.7% in assay [7], 26% in assay [8], 0.6% in assay [9] and 38% with Collagen type IV (Sigma) [10].

In the case of “Ace protein of E. faecalis strain OG1RF (native; on 46°C-grown cells or in mutanolysin-PMSF extracts)”, the % of cells bound in assay [11] stood at 24.6%; in assay [14], 32%; in assay [15] it was 0.6%; with Collagen type IV (Sigma) [16] it was 29.6%; in assay [17], 25.6%; in the assay with Collagen type IV (Sigma) [18], 27.7%. Further, the % of cells bound in [19] worked out at 21.1%; in assay [20], 31.9%; in assay [22] it was 0.9%. Moreover, the results for the fold decrease in adherence, ace mutant TX5256 against OG1RF (with Collagen type IV (Sigma) [12]; in assay [21]) were 27.4 fold and 32.9 fold, respectively. Further, the fold decrease in percentage of binding, ace mutant TX5256 against OG1RF in assay [13] amounted to 6.5 fold.

Regarding “Ace protein of E. faecalis strain V583 (native; on 46°C-grown cells or in mutanolysin extract)”, the % of cells bound in the assay with Collagen type IV (Sigma) [23] worked out at 38.1%; in [24], 0.7%; in assay [25], 29.4%; in assay [26], 29.2%.

For orientation: Kd means the concentration at which binding is half-saturated. Lower therefore signals higher affinity. Substance “Recombinant E. faecalis EF1 Ace A domain (N-terminal His6-tag fusion protein)” showed a Kd in [27] of 48 µM.
